From publication PMC3557595 (Journal of molecular biology, 2012)

Experiments:
[1] = target: Hs H3.1(1-136)(S88Q/G103H)-His6/H4(1-103) (human, UniProt P68431 1-136; P62805 1-103, S88Q | G103H); assay: pull-down
[2] = target: GS-CENP-A(60-140)-LVPR and H4^Hs(1-103) (human, UniProt P49450 60-140; P62805 1-103); assay: SEC
[3] = target: GS-CENP-A^Hs(60-140)-LVPR and GS-H4^Hs(22-103) (human, UniProt P49450 60-140; P62805 22-103); assay: SEC

Measured: binding result

B1: Hs GS-HJURP(2-81) (domain or fragment)
chain: GSLGTLRAMEGEDVEDDQLLQKLRASRRRFQRRMQRLIEKYNQPFEDTPVVQMATLTYETPQGLRIWGGRLIKERNEGEIQD
binds: all assays above
